# Experimental data taken from patent US20230226096A1 (Orna Therapeutics, Inc., priority 2020, published 2023).
# “Also recorded” adds a separate entry of the source.
# B1: EV 30 (nucleic acid, listed as Enterovirus sp.)
# DNA: AAGCAAGGCAAACCTGACCAATAGTAGGTGTGGCACACCAGCCGCATTTTGGTCAAGCACTTCTGTTTCCCCGGACCGAGTATCAATAAGCTGCTCACGCGGCTGAAGGAGAAACCGTTCGTTACCCGACCAGCTACTTCGAGAAACCTAGTAACACTATGAACGTTGCGGAGTGTTTCGTTCAGCACTTCCCCCGTGTAGATCAGGTCGATGAGTCACCGCATTCCTCACGGGTGACCGTGGCGGTGGCTGCGTTGGCGGCCTGCCTACGGGTTCGCCCGTAGGACGCTCTAATACCGACATGGTGTGAAGAGTCCATTGAGCTAGCTGGTAGTCCTCCGGCCCCTGAATGCGGCTAATCCTAACTGCGGAGCAGGTGCTCACAGACCAGTGAGTAGCCTGTCGTAACGGGCAACTCTGCAGCGGAACCGACTACTTTGGGTGTTTTTCCTTTTTTCTTCTCTTATATTGGCTGCTTATGGTGACAATTAAAGAATTGTTACCATATAGCTATTGGATTGGCCATCCGGTGACGAGCAGAGCCATTGTTTACCTCTTTGTTGGATTTGTACCTTTGAACCACAAAGTCTTGAATACCATTCATCTCATTTTAAAGTTCAACTCAGCTAAAAGAAA
# B2: EV A114 (nucleic acid, listed as Enterovirus sp.)
# DNA: TGTGCGCCTGTTTTGAAACCCCCTCCCCCAACTCGAAACGTAGAAGTAATGTACACTACTGATCAGTAGCAGGCGTGGCGCACCAGCCATGTCTCGATCAAGCACTTCTGTTTCCCCGGACTGAGTATCAATAGACTGCTCACGCGGTTGAAGGTGAAAACGTCCGTTACCCGGCTAACTACTTCGAGAAACCTAGTAGCACCATAGAAACTGCAGAGTGTTTCGCTCAGCACTTCCCCCGTGTAGATCAGGTCGATGAGTCACTGCAATCCCCACGGGTGACCGTGGCAGTGGCTGCGTTGGCGGCCTGCCTATGGGGCAACCCATAGGACGCTCTAAGGTGGACATGGTGTGAAGAGTCTATTGAGCTAGTTAGTAGTCCTCCGGCCCCTGAATGCGGCTAATCCTAACTGTGGAGCGCATACTCCCAAACCAGGGAGCAGTGCGTCGTAACGGGCAACTCCGCAGCGGAACCGACTACTTTGGGTGTCCGTGTTTCCTTTTATTCCTATACTGGCTGCTTATGGTGACAATTGAGAGATTGTTACCATATAGCTATTGGATTGGCCATCCAGTGTGTAATAGAGCAATCATTTACCAATTTGTTGGATTTACTCCATTAACCCACACGTCTCTCAACACACTACATTTCATCTTACTACTGAACACTAGAAA
# B3: PSIV IGR (nucleic acid)
# DNA: GCTGACTATGTGATCTTATTAAAATTAGGTTAAATTTCGAGGTTAAAAATAGTTTTAATATTGCTATAGTCTTAGAGGTCTTGTATATTTATACTTACCACACAAGATGGACCGGAGCAGCCCTCCAATATCTAGTGTACCCTCG
# modifications: Plautia stali intestine virus
# B4: EV C102 (nucleic acid, listed as Enterovirus sp.)
# DNA: CTTTGTACGCCTGTTTTACATCCCCTCCCCCACGTAACTTTAGAAGCAATTCAACAAGTTCAATAGAGGGGGTACAAACCAGTATCACCACGAACAAGCACTTCTGTTTCCCCGGTGATTTTACATAAGCTGTGCCCACGGCTGAAAGTGAATGATCCGTTACCCGCTCGAGTACTTCGAAAAGCCTAGTATCGCTTTGGGATCTTCGACGCGTTGCGCTCAGCACTCTACCCCGAGTGTAGCTTAGGCTGATGAGTCTGGGCATTCCCCATCGGCGACGATGGCCCAGGCTGCGTTGGCGGCCTACCCATGGCTAACGCCATGGGACGCTAGTTGTGAACAAGGTGTGAAGAGCCTATTGAGCTACTCGAGAGTCCTCCGGCCCCTGAATGCGGCTAATCCCAACCACGGATCAGGTGCCTCCAACCCAGGAGGTGGCCTGTCGTAACGCGCAAGTCTGTGGCGGAACCGACTACTTTGGGTGTCCGTGTTTCCTTTTATCTTTTAAATGGCTGCTTATGGTGACAATCATAGATTGTTATCATAAAGCGAATTGGATTGGCCATCCGGTGAAATACAAACACATTATTTACTTGTTTGTTGGATTTACTCCGCTCACACAGCTTACTCCTAAGATAATATTTATTGTATTGCTGGTAAGGAGACACTATTATA
# B5: SA5 (nucleic acid)
# DNA: AGTACTTGGTATTCCGGTACCTTTGTACACCTATTTACAAACCCTACCCCTTGTAACCTTAGAAGCAATTATTTAACCGCTCACTAGGGGGTGTGCTATCCAAGCACATCAAGAGCAAGCACTTCTGTCTCCCCGGGAGGGGCTAATGGTACGCTGTGCCCACGGCGGAAATGAGCCCTACCGTTAACCGGCAGTCTACTTCGGGAAGCCCAGTAACTACATTGAAACTTTGAGGCGTTACACTCAGCACATAACCCCAATGTGTAGTTCTGGTCGATGAGCCTTGGCATCCCCCACAGGCGACTGTGGCCAAGGCTGCGTTGGCGGCCAGCCTGCGGACCAAAAGTCCGTAGGACGCCTAATTGTGGACATGGTGTGAAGAGCCTACTGAGCTAGACTGTAGTCCTCCGGCCCCTGAATGCGGCTAATCCTAACCCTGGAGCATCCGCGTGCAACCCAGTACGTAGGGTGTCGTAATGCGTAAGTCTGGGATGGAACCGACTACTTTGGGTGTCCGTGTTTCTTGTTTTTCATACTGGGTCGCTTATGGTTACAACTAATTGTTGTAATCATTGGCAGTGCGCGCTGACCACGCGATTATTGATATTTCCATTTGTTGGATACTCCAATAGTGTCAACTCATATACACAACTTTTACCACTGATCAAGATAAAA
# Test system: HEK293 cells
# Assay: not given
# Assay type: cell-based, human
# Details: luminescence from secreted Gluc in supernatant 24 hours after transfection of HEK293 cells; circular RNA encoding Gluc with the named IRES (UTR truncated to 675 nt)
row,Molecule,Expression
1,B1,5.48E+06
2,B2,1.50E+08
3,B3,1.01E+05
4,B4,8.85E+07
5,B5,1.61E+08

# Test system: splenic immune cells
# Assay: Cre circular RNA LNPs in Cre reporter (Ai9) mice: tdTomato+ splenic immune cells
# Assay type: in vivo
# Details: 0.5 mg/kg RNA intravenously, 48 hr, 0.5 mg/kg
# Description: Circular RNAs encoding Cre recombinase (Cre) are encapsulated into lipid nanoparticles as previously described. Female, 6-8 week old B6.Cg-Gt(ROSA)26Sortm9(CAG-tdTomato)Hze/J (Ai9) mice were dosed with lipid nanoparticles at 0.5 mg/kg RNA intravenously. Fluorescent tdTomato protein was transcribed and translated in Ai9 mice upon Cre recombination, meaning circular RNAs have been delivered to and translated in tdTomato+ cells. After 48 hr, mice were euthanized and the spleens were harvested, processed into a single cell suspension, and stained with various fluorophore-conjugated antibodies for immunophenotyping via flow cytometry.
# Ai9 mice (B6.Cg-Gt(ROSA)26Sortm9(CAG-tdTomato)Hze/J, female, 6-8 weeks, n=3 per group) were injected i.v. with 0.5 mg/kg Cre oRNA LNPs or PBS. Ai9 mice transcribe and translate the fluorescent reporter tdTomato upon Cre recombination; meaning cells which are tdTomato+ have successfully been transfected with Cre oRNA.
row,Molecule,proportion of splenic immune cells expressing tdTomato (transfection)
1,CCCCCCCCC(CCCCCC)C(=O)OCCCCCCN(CCCCCCOC(=O)C(CCCCCC)CCCCCCCC)CCCn1ccnc1 (stereo not drawn) [Lipid 26 from Table 10a],significantly higher myeloid and T cell transfection compared with Lipid 93-S14; also recorded: effective at delivering circular RNAs to many splenic immune cell subsets in mice
